Experimental data taken from patent US20260152552A1 (CURON BIOPHARMACEUTICAL SHANGHAI, published 2026).

B1: anti-L1CAM human-mouse chimeric antibody ch103E9B3 (antibody, V domains shown)
VH: EVQLQQSGPELLKPGASVKISCKASGYTFTSYTMHWVKQSHGKSLEWIGDINPNYGGTSYNEKFKDKATLTVDKSSSTAYMELRSLTSEDSAVYYCAREGATGTWYFDVWGTGTTVTVSS
VL: QIVLTQSPALMSASPGEKVTMTCSASSSVSFMFWYQQKPRSSPKPWIYLTSNLASGVPARFSGSGSGTSYSLTISSMEAEDAATYYCQQWRSNPPTFGAGTKLELK
notes: VH and VL of mouse 103E9B3 with human IgG1 constant regions; The entries as printed seem to begin with a leader peptide
B2: mouse anti-L1CAM monoclonal antibody 103E9B3 (antibody, V domains shown)
VH: EVQLQQSGPELLKPGASVKISCKASGYTFTSYTMHWVKQSHGKSLEWIGDINPNYGGTSYNEKFKDKATLTVDKSSSTAYMELRSLTSEDSAVYYCAREGATGTWYFDVWGTGTTVTVSS
VL: QIVLTQSPALMSASPGEKVTMTCSASSSVSFMFWYQQKPRSSPKPWIYLTSNLASGVPARFSGSGSGTSYSLTISSMEAEDAATYYCQQWRSNPPTFGAGTKLELK
notes: Mouse IgG tested as hybridoma supernatant
B3: mouse anti-L1CAM monoclonal antibody 25F8H8 (antibody, V domains shown)
VH: QVQLQQSGAELAKPGASVKMSCQASGYTFTTYWMHWVKQRPGQGLEWIGYINPSTGYTDYNQKFKDKATLTADKSSSTAYMQLSSLTSEDSAVYYCARRQLGLPLFDYWGQGTTLTVSS
VL: DIVMTQSHKFLSTSVGDRVSITCKASQDVGTAVAWYQHKPGQSPKLLIFWASTRHTGVPDRFTGSGSGTDFTLTISNVQSEDLADYFCQQYSNYPLTFGAGPKLELK
notes: as for B2
B4: anti-L1CAM human-mouse chimeric antibody ch25F8H8 (antibody, V domains shown)
VH: QVQLQQSGAELAKPGASVKMSCQASGYTFTTYWMHWVKQRPGQGLEWIGYINPSTGYTDYNQKFKDKATLTADKSSSTAYMQLSSLTSEDSAVYYCARRQLGLPLFDYWGQGTTLTVSS
VL: DIVMTQSHKFLSTSVGDRVSITCKASQDVGTAVAWYQHKPGQSPKLLIFWASTRHTGVPDRFTGSGSGTDFTLTISNVQSEDLADYFCQQYSNYPLTFGAGPKLELK
notes: VH and VL of mouse 25F8H8 with human IgG1 constant regions (CH1, CH2, CH3)
B5: mouse anti-L1CAM monoclonal antibody 46F1D5 (antibody, V domains shown)
VH: QVQVQQSGAELAKPGASMKMSCKASGYTFTRYWMQWVKQRPGQGLEWIGYINPSTGYTDYNQNFKDKATLTADKSSSTAYMQLSSLTSEDSAVYYCARRHLGLPLFDYWGQGTTLTVSS
VL: DIVMTQSHKFMSTSLGDRVSITCKASQDVGTAVAWYQQKPGQSPKLLIYWASTRHTGVPDRFTGSGSGTDFTLTISNVQSEDLAEYFCQQYSNYPLTFGAGTKLDLK
notes: as for B2
B6: anti-L1CAM human-mouse chimeric antibody ch26A12C1 (antibody, V domains shown)
VH: QVQLQQSGAELAKPGASVKMSCKASGYTFTNYWMQWVKQRPGQGLEWIGYINPSTYYSDYNQKFKDKATLTADKSSSTAFMQLSSLTSEDSAVYYCARRQFGLPLFDYWGQGTTLTLSS
VL: DIVMTQSHKFMSTSVGDRVSITCKASQDVGTAVAWYQQKPGQSPKLLIYWASTRHTGVPDRFTGSGSGTDFTLTISNVQSEDLTDYFCQQYSNYPLTFGAGTELELK
notes: VH and VL of mouse 26A12C1 with human IgG1 constant regions; The entries as printed seem to begin with a leader peptide
B7: mouse anti-L1CAM monoclonal antibody 26A12C1 (antibody, V domains shown)
VH: QVQLQQSGAELAKPGASVKMSCKASGYTFTNYWMQWVKQRPGQGLEWIGYINPSTYYSDYNQKFKDKATLTADKSSSTAFMQLSSLTSEDSAVYYCARRQFGLPLFDYWGQGTTLTLSS
VL: DIVMTQSHKFMSTSVGDRVSITCKASQDVGTAVAWYQQKPGQSPKLLIYWASTRHTGVPDRFTGSGSGTDFTLTISNVQSEDLTDYFCQQYSNYPLTFGAGTELELK
notes: as for B2
B8: anti-L1CAM human-mouse chimeric antibody ch46F1D5 (antibody, V domains shown)
VH: QVQVQQSGAELAKPGASMKMSCKASGYTFTRYWMQWVKQRPGQGLEWIGYINPSTGYTDYNQNFKDKATLTADKSSSTAYMQLSSLTSEDSAVYYCARRHLGLPLFDYWGQGTTLTVSS
VL: DIVMTQSHKFMSTSLGDRVSITCKASQDVGTAVAWYQQKPGQSPKLLIYWASTRHTGVPDRFTGSGSGTDFTLTISNVQSEDLAEYFCQQYSNYPLTFGAGTKLDLK
notes: VH and VL of mouse 46F1D5 with human IgG1 constant regions; The entries as printed seem to begin with a leader peptide
B9: anti-L1CAM human-mouse chimeric antibody ch49E10H1 (antibody, V domains shown)
VH: DVQLQESGPGLVKPSQSLSLTCTVTGYSITSDYAWNWIRQFPGNRLEWMGYITYSGTTTYNPSLKSRISITRDTSKNQFFLQLNSVTTADTATYYCTLDHYGNYAYFDYWGQGTTLTVSS
VL: QIVLSQSPAILSASPGEKVTMTCRASSSVSFMHWYQQKPRSSPKPWIYASSNLVSGVPTRFSGSGSGTSYSLTISRVEAEDAATYYCQQWSSNPSTFGAGTKLELK
notes: VH and VL of mouse 49E10H1 with human IgG1 constant regions; The entries as printed seem to begin with a leader peptide
B10: mouse anti-L1CAM monoclonal antibody 49E10H1 (antibody, V domains shown)
VH: DVQLQESGPGLVKPSQSLSLTCTVTGYSITSDYAWNWIRQFPGNRLEWMGYITYSGTTTYNPSLKSRISITRDTSKNQFFLQLNSVTTADTATYYCTLDHYGNYAYFDYWGQGTTLTVSS
VL: QIVLSQSPAILSASPGEKVTMTCRASSSVSFMHWYQQKPRSSPKPWIYASSNLVSGVPTRFSGSGSGTSYSLTISRVEAEDAATYYCQQWSSNPSTFGAGTKLELK
notes: as for B2

Assays:
[1] = target: T1, human L1CAM (L1 cell adhesion molecule), endogenously expressed on the surface of HeLa cells (human, UniProt P32004 20-1257); experiment: flow cytometry on HeLa cells (endogenous human L1CAM)
T1 construct: whole, on cells; also called CD171
Experimental: The experimental principle is as follows: HeLa cells express high levels of L1CAM protein on their surface. After incubating humanized L1CAM antibodies with the cells, the binding ability of the antibodies to L1CAM on the surface of HeLa cells can be determined by flow cytometry. The experimental method is descripted as following: Humanized L1CAM antibodies (Human IgG1-Kappa) are diluted in complete medium in a four-fold serial dilution, with seven concentration gradient points. HeLa cells are cultured in DMEM complete medium (Corning, 10-013-CVR) containing 10% FBS (Gibco, 10099-141) and 100 U/mL penicillin mixture (Thermofisher, 15140122). When the cell coverage in the culture container reaches 80-90%, TrypLE (Thermofisher, 12604-013) is used to digest the HeLa cells from the culture container, and they are seeded in a 96-well plate (AXYGEN, P-96-450V-C) at a density of 2.2×10⁶ cells/ml, with 100,000 cells (45 μL complete medium) per well. Then, 5 μL of the antibody dilution is added to each well, gently mixed, and the 96-well plate is incubated at 4° C. for 1 hour. Then, 150 μL of PBS solution containing 2% FBS (Corning, 21-040-CVC) is added to each well, centrifuged at 1400 rpm for 4 minutes, the supernatant is removed, and the wells are washed once more. Then, 50 μL of Alexa Flour 647-labeled goat anti-human fluorescent secondary antibody (Jacksonimmuno, 109-605-088) diluted 1:800 is added to each well, and the 96-well plate is incubated at 4° C. for 0.5 hours. The cells are washed twice with PBS solution containing 2% FBS, then resuspended in 120 μL of PBS, and the cell surface fluorescence signal is detected using a flow cytometer (BD FACS Celesta), obtaining the median fluorescence intensity (MFI). A dose-response curve is generated, and the half-maximal effective concentration (EC50) is calculated using non-linear regression with GraphPad software.

[2] = target: T1, human L1CAM (L1 cell adhesion …); experiment: as above; remark: listed apart in the source
Experimental: This example utilizes HeLa cells and L1CAM-knockout HeLa cells (purchased from Abcam) to determine the binding of mouse anti-L1CAM monoclonal antibodies to endogenously expressed human L1CAM on the cell surface. L1CAM-knockout HeLa cells are referred to as HeLa KO cells in this invention. HeLa cells are cultured in DMEM complete medium (purchased from Corning) containing 10% FBS (purchased from Gibco) and 100 U/mL penicillin mixture (Thermofisher, 15140122). […] Then, the human-mouse chimeric antibodies are serially diluted in DMEM complete medium, with 25 μL of the diluted chimeric antibody solution added to each well, gently mixed, and incubated at 4° C. for 1 hour. Then, 150 μL of PBS buffer containing 2% FBS (purchased from Corning) is added to each well, centrifuged at 1400 rpm for 4 minutes, the supernatant is removed, and the wells are washed once more. Then, 50 μL of Alexa Flour 647-labeled goat anti-human fluorescent secondary antibody (purchased from Jacksonimmuno) diluted 1:800 is added to each well, and the 96-well plate is incubated at 4° C. for 0.5 hours. The cells are washed twice with PBS solution containing 2% FBS, then resuspended in 120 μL of PBS, and the cell surface fluorescence signal is detected using a flow cytometer (BD FACSCelesta), obtaining the median fluorescence intensity (MFI). A dose-response curve is generated, and the half-maximal effective concentration (EC50) is calculated using non-linear regression with GraphPad software.

[3] = target: T1, human L1CAM (L1 cell adhesion …); experiment: flow cytometry on HeLa cells (endogenous human L1CAM), hybridoma supernatant
Experimental: HeLa cells used in this example were used to measure the binding of mouse anti-L1CAM monoclonal antibodies to endogenously expressed human L1CAM on the cell surface. HeLa cells were cultured in DMEM complete medium (purchased from Corning) containing 10% FBS (purchased from Gibco) and 100 U/mL penicillin-streptomycin mixture (Thermofisher, 15140122). When the coverage of the cells in the culture container reached to 80-90%, using TrypLE (purchased from Thermofisher) to digest Hela cells from the culture container, and seed them in a 96-well plate (purchased from AXYGEN) at a density of 4×10⁶ cells/ml, with 100,000 cells per well (25 μL DMEM complete culture medium), then add 25 μL of diluted hybridoma supernatant containing antibodies to each well, mix gently, and incubate the 96-well plate at 4° C. for 1 hour. Then add 150 μL of PBS buffer containing 2% FBS (purchased from Corning) to each well, centrifuge at 1400 rpm for 4 minutes, remove the supernatant, and repeat washing once. Then, 50 μL of 1:800 diluted Alexa Flour 647-labeled goat anti-mouse fluorescent secondary antibody (purchased from Jacksonimmuno) was added to each well, and the 96-well plate was incubated at 4° C. for 0.5 hours. The cells were washed twice with PBS solution containing 2% FBS, and then resuspended in 120 μL of PBS. The fluorescence signal on the cell surface was detected using a flow cytometer (BD FACSCelesta) to obtain the median fluorescence intensity (MFI). The antibody-containing hybridoma supernatant was assayed using an anti-mouse ELISA assay to determine the concentration of mouse IgG in the supernatant. Finally, a dose-response curve was generated, and the half effective concentration (EC50) was calculated by nonlinear regression using GraphPad software.

T1 sequence (P32004 20-1257): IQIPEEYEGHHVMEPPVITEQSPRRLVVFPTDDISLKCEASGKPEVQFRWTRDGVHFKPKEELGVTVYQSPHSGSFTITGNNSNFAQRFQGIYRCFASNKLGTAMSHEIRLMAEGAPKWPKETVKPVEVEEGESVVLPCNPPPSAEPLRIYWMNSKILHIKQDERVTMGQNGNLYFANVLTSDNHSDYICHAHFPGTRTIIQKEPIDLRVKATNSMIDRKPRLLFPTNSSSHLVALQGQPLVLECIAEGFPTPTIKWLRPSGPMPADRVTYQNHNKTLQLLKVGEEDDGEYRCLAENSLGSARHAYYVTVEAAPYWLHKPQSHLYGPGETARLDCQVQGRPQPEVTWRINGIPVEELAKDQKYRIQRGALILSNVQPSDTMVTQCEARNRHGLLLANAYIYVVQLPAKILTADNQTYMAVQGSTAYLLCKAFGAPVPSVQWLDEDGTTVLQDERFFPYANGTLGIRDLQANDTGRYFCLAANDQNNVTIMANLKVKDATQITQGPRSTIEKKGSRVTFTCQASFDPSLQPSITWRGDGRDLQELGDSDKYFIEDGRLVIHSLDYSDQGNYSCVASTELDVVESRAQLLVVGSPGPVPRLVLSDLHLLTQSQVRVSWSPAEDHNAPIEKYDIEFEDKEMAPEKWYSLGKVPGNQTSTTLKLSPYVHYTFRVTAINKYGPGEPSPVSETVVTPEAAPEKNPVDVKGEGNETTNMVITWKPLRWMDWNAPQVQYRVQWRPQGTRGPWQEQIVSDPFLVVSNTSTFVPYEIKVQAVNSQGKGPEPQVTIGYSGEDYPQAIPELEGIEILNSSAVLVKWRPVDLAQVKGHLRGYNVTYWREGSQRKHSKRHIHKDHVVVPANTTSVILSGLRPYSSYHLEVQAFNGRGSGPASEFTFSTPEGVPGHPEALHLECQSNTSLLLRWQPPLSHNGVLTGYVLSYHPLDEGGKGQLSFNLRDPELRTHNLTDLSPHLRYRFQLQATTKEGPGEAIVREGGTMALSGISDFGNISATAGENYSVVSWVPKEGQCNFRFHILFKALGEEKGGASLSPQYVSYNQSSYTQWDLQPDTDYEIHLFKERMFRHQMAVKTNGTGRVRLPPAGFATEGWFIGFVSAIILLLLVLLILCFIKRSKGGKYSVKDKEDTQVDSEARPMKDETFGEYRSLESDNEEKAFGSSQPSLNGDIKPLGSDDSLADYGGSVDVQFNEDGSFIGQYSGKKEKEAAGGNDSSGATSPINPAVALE

Binder	EC50 [1]	EC50 [2]	Maxium MFI [2]	EC50 [3]
B1	1210 pM	1110 pM	45400 MFI	–
B2	–	–	–	436 pM
B3	–	–	–	193 pM
B4	–	833 pM	29300 MFI	–
B5	–	–	–	144 pM
B6	–	739 pM	44700 MFI	–
B7	–	–	–	241 pM
B8	–	845 pM	43100 MFI	–
B9	–	978 pM	42900 MFI	–
B10	–	–	–	233 pM
